Measured values reported in PMC13483431, “Structure and mechanism of the HSV-1 origin-binding protein UL9” (Journal of Virology, 2025).

How the values were obtained:
[1] = target: T1, full-length HSV-1 ICP8 with an N-terminal 8xHis tag (HSV-1, UniProt P04296 1-1196); experiment: pull-down; Strep-tag pull-down: 50 μg Strep-tagged UL9^CTD or full-length UL9 as bait with an equal amount of ICP8; 50 mM Tris pH 8.0, 150 mM NaCl, 1 mM DTT, 0.05% Tween-20; 1 h at 4 °C; SDS-PAGE with Coomassie; conditions: both partners purified
T1 construct: also called His-tagged ICP8; source: insect cells (baculovirus, as UL9^FL), purified (Ni-NTA); not shown: 8xHis, N-terminal, kept
T1 sequence: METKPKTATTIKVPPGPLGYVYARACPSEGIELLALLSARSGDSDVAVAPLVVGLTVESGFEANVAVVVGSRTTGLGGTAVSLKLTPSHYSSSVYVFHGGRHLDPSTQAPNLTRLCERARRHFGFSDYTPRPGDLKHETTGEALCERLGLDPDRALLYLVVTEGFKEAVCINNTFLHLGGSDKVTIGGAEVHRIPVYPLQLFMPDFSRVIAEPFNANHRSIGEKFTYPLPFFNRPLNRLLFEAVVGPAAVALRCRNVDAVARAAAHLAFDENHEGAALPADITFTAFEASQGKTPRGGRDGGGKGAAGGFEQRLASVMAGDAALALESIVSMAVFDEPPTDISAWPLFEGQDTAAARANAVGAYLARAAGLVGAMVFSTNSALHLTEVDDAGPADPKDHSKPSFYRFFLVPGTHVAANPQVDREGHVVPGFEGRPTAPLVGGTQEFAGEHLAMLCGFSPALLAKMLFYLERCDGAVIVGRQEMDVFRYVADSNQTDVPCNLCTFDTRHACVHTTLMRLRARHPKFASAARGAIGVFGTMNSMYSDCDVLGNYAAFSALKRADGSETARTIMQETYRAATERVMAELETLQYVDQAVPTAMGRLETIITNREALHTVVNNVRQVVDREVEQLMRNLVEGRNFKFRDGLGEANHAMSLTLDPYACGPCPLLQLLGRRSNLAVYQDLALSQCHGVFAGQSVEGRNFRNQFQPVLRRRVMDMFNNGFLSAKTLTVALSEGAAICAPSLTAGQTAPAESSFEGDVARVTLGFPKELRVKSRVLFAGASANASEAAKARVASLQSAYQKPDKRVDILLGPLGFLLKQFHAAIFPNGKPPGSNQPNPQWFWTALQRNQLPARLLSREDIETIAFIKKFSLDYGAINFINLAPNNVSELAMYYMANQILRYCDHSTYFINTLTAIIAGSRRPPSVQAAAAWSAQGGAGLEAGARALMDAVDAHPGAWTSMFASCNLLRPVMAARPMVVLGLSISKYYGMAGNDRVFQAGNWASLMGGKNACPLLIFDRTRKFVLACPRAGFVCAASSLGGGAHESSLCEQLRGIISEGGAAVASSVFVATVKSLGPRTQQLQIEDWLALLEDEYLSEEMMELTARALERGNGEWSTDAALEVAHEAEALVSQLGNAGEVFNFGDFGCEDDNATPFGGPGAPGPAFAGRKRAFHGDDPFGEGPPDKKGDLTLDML

[2] = target: T1, full-length HSV-1 ICP8 with an …; experiment: pull-down; GST pull-down: 50 μg GST-tagged UL9^CTD variants or C-tail peptides on GST beads with an equal amount of ICP8; 50 mM Tris pH 8.0, 150 mM NaCl, 1 mM DTT, 0.05% Tween-20; 1 h at 4 °C; SDS-PAGE with Coomassie; conditions: both partners purified
UL9CTD wild type = UL9CTD wild type (HSV-1, UniProt P10193 536-851); experiment: MST; MST: 50 mM Tris pH 8.0, 150 mM NaCl, 1 mM DTT, 0.05% Tween-20, 40 nM FAM-dsDNA, 25 C; EMSA: 50 mM Tris pH 8.0, 50 mM NaCl, 1 mM DTT, 40 nM FAM-dsDNA, 0.5-3.5 uM protein, 4 C; cryo-EM complex: 20 mM HEPES pH 7.0, 150 mM NaCl, 1 mM DTT; conditions: protein: recombinant; tags: N-terminal 8xHis; blunt

B1: Strep-tagged UL9 C-terminal domain (residues 536-851) (domain or fragment)
chain: PEASLPAQAAETEEVGLFVEKYLRSDVAPAEIVALMRNLNSLMGRTRFIYLALLEACLRVPMATRSSAIFRRIYDHYATGVIPTINVTGELELVALPPTLNVTPVWELLCLCSTMAARLHWDSAAGGSGRTFGPDDVLDLLTPHYDRYMQLVFELGHCNVTDGLLLSEEAVKRVADALSGCPPRGSVSETDHAVALFKIIWGELFGVQMAKSTQTFPGAGRVKNLTKQTIVGLLDAHHIDHSACRTHRQLYALLMAHKREFAGARFKLRVPAWGRCLRTHSSSANPNADIILEAALSELPTEAWPMMQGAVNFSTL
notes: HSV-1 UL9 C-terminal domain, residues 536-851; As the His-tagged construct, with the N-terminal 8xHis tag replaced by a Strep-tag; also called UL9^CTD; Strep-tagged UL9^CTD; source: E. coli BL21 (DE3), purified (Strep-Tactin XT, Superdex 75); not shown: Strep-tag, N-terminal, kept
[1]
  binding result: binds

B2: GST-tagged UL9 C-terminal domain (residues 536-851) (domain or fragment)
chain: B1 chain
notes: HSV-1 UL9 C-terminal domain, residues 536-851; Cloned into pGEX-6P-1; also called UL9^CTD; source: E. coli BL21 (DE3), purified (Glutathione-Sepharose 4B); not shown: GST, N-terminal, kept
[2]
  binding result: binds

B3: 15-bp oriS Box I dsDNA (dsDNA)
DNA 1: GCGTTCGCACTTCGT
DNA 2: ACGAAGTGCGAACGC
UL9CTD wild type
  Kd: 2.23 ± 0.42 µM
